Source: the domain aggregation screens of Martell et al. (2025)

Assay: soluble fraction after stress (log2 fold change); higher = more stays soluble; pooled small domains, quantitative proteomics
Conditions: stress: 75 degC
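Also: 20 min heating vs room temperature control held 20 min.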

## HMIMISKSFEINEDNINKRLDIFLTENLDGLSRGIVQKYISLEQITVNKESSHKDYRLKLDDFIEVKIQAH
  soluble fraction (log2): -4

## HMIMNDIQAKVLEIAETKDLGSITYYRLSKMLGVDHPYRVKYAIDKLIEKGLLTAKSDGSITKAI
  soluble fraction (log2): -1.47

## HMIMTTKVSGIMFDKFNPSAILNINGMDYLVRSGDIINGYKILSIGQETVTVQYGANVYKASVG
  soluble fraction (log2): -4.48

## HMIMVAGHLQIKKGKYYMVLELKSESGERKTKWISTGLSAKGNKRKAEAMLEEARENYQSTDA
  soluble fraction (log2): -1.13

## HMINIFKVKKAMEEIFASEWEDSPYTDQKISQILWSRGFSVSTGLVEKYRGQMGVPDANSRLNLN
  soluble fraction (log2): -2.49

## HMINIGANIRAIRKQKNIKQVDLVRLLQLEGVEITRETLVKIESGVQHIKASQLRGIRDALGTTYDELL
  soluble fraction (log2): -2.88

## HMINITALVKQLGGVDISKFNSAFKLLQQGKPLNTISNKVMADTFVALMKNSDEALNTKFRAAFKKI
  soluble fraction (log2): -0.441

## HMINKIANLSAELRMEGLPVSIRSTQAAVKIYMDLGGDDRNLLKTALMSIYVKDRYDIPKFNKVFEKLFA
  soluble fraction (log2): -1.66

## HMINKQPKDYEYFLEKWHFTQTEKHQLHNLILKLNIRYPNKDFLKITENLDNGKLVLKKLEERLSKT
  soluble fraction (log2): -1.33

## HMINNINKLPETQFIKLFANIFENSQFIAVALYKKKGDGFSDFKDLINKIMDIFENTTKEKKLKILNA
  soluble fraction (log2): -0.381

## HMINPASEKQLSFANSLIAKKEGGTETLNHYLHNRKVSSLEELDRKDVSEIINALKFAKEVT
  soluble fraction (log2): 0.641

## HMINRPVYVPLYTNLDVKDAAEIAEKLEENNIAYKLEDQGETILVNPEQKYKVRLMLAQEGLPKG
  soluble fraction (log2): 0.0786

## HMINSFDYLQAIFTELMKSQSKMTNQDAAKRLFMQGKVAVSNRDREGLRMVLAQLVTLLPKEELGGLSTVS
  soluble fraction (log2): -1.38

## HMIPESVQGIEEFLATGALKGIGKKTAAAIVHKFGKDTLRIMEEEPERLAEVSGIGEKKAAAIGEAFALH
  soluble fraction (log2): 0.134

## HMIPNPMTDRELEVLGLLASGKTYKQVARALDLSQSTVRNHLHNVYHKLNVVDRAQAVIVSRENGW
  soluble fraction (log2): -0.379

## HMIPPGTITIEGAITKVPVFLDGKQIGTVPLTKEDVEPGKYRIRVLGVGRVITIDPGEKENVLFSGEDLGL
  soluble fraction (log2): -0.0563

## HMIPTDPNGDLIKILYTSDQINELYARAKLNDVEDLFLDWTKNVLGESNFEETGPTKNEYLIPQ
  soluble fraction (log2): -0.0775

## HMIPTTELAERLGTTKVANMIMLGALIKASGIISFDDMIKNLGELLGEGKAKLIKLNKEALEVGFN
  soluble fraction (log2): 0.139

## HMIPYSDLLKLLSNDAMPKFRNKDGWAKIHALETYLASRWSYQEYGFASFTVLLETVHNAEIRNDSVRLM
  soluble fraction (log2): -0.479

## HMIQTMVVTDLKNGTIFKENGHPFIVLKYEHIKVSRGSAQVRVKMKNLITGQVLEKSWQSTAHVDDT
  soluble fraction (log2): -3.24

## HMIRMPNLIGLSVRSAEQQLVIAGLKKGIVHQVNDPRLKEVIDMQALGHKITAGSSIPKGTEVDLYIGNGT
  soluble fraction (log2): -0.944

## HMISAVDLMAARRKIEAGITNLQPGQAFTLPNKVGWVKRMTGGSYFIQGNGGYTASVRTISEAIQAAAMLL
  soluble fraction (log2): -3.11

## HMISDQENDLNLKHLFDTADQNKDGLILESELKMLMTNLEINKETYDTVMKQITPAGMDYKTFSSL
  soluble fraction (log2): 0.293

## HMISFLNFVRKEIDASQLKDSTKQNHLTTIGLLQSFKPSIEFKDLNYNFITSFEKYLYDAGYQM
  soluble fraction (log2): 0.0114

## HMISKQQRQALILDIIQKQSITSQEALLTELQRHHVMTTQTTVSRDIRALGIVRIKDVNGELSYQQLQ
  soluble fraction (log2): -2.69

## HMISKRFQIDEDNSNKRIDIFLTQSLDSISRGIVQQLILENKVEVNGGPVKRNYLIKIGDVIDVKIDL
  soluble fraction (log2): -2.96

## HMISKTFEINEDNINNRLDIFLANQFDNLSRGIVQKLIESHSVSVSGNFVEKDYKLKLGDIIDVEINLS
  soluble fraction (log2): -1.64

## HMISLNEDQKLAILNEWNQRPDDPPFIKELIELVFPDIPEEAKTGRSRYGIAIKKFLAEKSLQAKV
  soluble fraction (log2): -0.197

## HMISLPSYIREEATEVYNRLHDLGLEYTSLDVNDDSIPKGYVVRTVPEAGASVPAGQVVTVYVSLG
  soluble fraction (log2): -0.829

## HMISQLRGKVLGTDRDALVIDVGGVGFRVSATAGARALAGQSGNEARLFTEMVVREDSIDLFGF
  soluble fraction (log2): 0.0812

## HMISRKIKELRLSHDLTQKDLADYLNLTPKMVSFYELGQRVPPSDIILKLAEKFHVSTDYLLGNEDRP
  soluble fraction (log2): -0.196

## HMITDNEFLRIVSFLKQRYGIDMSQKKVIMNGRLENYLKSGGWSSFDEYMNDVEKDTSGDLEKTLVNFLTT
  soluble fraction (log2): -1.38

## HMITETIGANIKTLRDKFRMSQQDLASKMNTARPVISNWENGKTEPSSSQLLKLAKIFDTSTDKILGNV
  soluble fraction (log2): 0.0689

## HMITKEDVANKKVNLLFFGNFHKMKLPDFEWGITEMMQDRDYLYGSLTKDLYFLGLVLDRKYKI
  soluble fraction (log2): 0.241

## HMITKENYLEKIKEIKVNEFPASMRELYDFFNEATRNGTDWSAYEEGNVKYVVDAYLERLNLLYKSN
  soluble fraction (log2): -1.01

## HMITLYIHNLEEVGKRLDHYLVSNLDDHSRSQIQSWIRSGSILVNDRSVKTGYSLELNDQILINPPK
  soluble fraction (log2): -2.51

## HMITNSTEIEAMIDSLIKENPEQAEQYRNGNTKVVGWFVGQMMKASKGKANPQVVGDLLAQKLVG
  soluble fraction (log2): 0.0621

## HMIVAHEINRHLGESDQPVEIPDNRREGAVAELLKTFNNDDAFREMDDGKYEVALDGEKVREAARSLLA
  soluble fraction (log2): 0.0479

## HMIVDARNREINLGSHVRYVDTGTVGEVTDSKVENDASWVKIDKTNLWYLANKLELLNDEDFKT
  soluble fraction (log2): 0.0789

## HMIVDINDVRIDKYIADNTDYSRNLILNLIKNGDILVNDSKIKPSYKVKQGDKITINNVKTD
  soluble fraction (log2): 0.332

## HMIVKQPDIRKQELLDIGVRLYFEAGEKGVSIQQVVKQAGVATGLFYYYFSSKDAFLDEALNDYID
  soluble fraction (log2): 0.0613

## HMIVLPGEELEVHIVQEGKEDGQGVAYLDDGTMVVVEGGRPYVDSFAYVAVTRVLQTGAGRIIFAHPTR
  soluble fraction (log2): -2.54

## HMIYNSGTTDSRGEAIVGGYLVTVTDTDTKDPVANAAVTLHKDNSISIRLPNSRLLDYADQTTVTVQLV
  soluble fraction (log2): 0.0328

## HMKAEKEIEKIKFTIYNEFKRKQEENHFLPPWDGTKMLRQFVLGVVANNPKYQHVNTDILYRDLLLLYYQ
  soluble fraction (log2): -2

## HMKAFTKKELQDLVLNIFRASPTTNYNYKQLYKLIRGKDPEIKTLIIAVLLGLEKNGSILQMRPGKYKFS
  soluble fraction (log2): 0.97

## HMKALDTVLSEIPGLGPVRIKQLLKVFGSVDAIRKASLQDLQQIEGIGPKLAQTIYEYFHQP
  soluble fraction (log2): 0.898

## HMKALYNLDYEKPLSGSYYTETTARAAVPTDIRKLGLIITYKTDATTNITEQFVGSSISAWTTSGNWKSLG
  soluble fraction (log2): -1.77

## HMKAPPLTDREKEILRWVAAGLQNKEIAHKLGISLATVRNHIHNILEKLDVHSKLEAVSLAFRQGWVS
  soluble fraction (log2): -0.356

## HMKASEMKKGQTIKIDGVLYVIVDFQHVKLSKGGAVYQTKLRNLAAGGIRDIRIRAEEVLEDA
  soluble fraction (log2): -2.97

## HMKDITPASEDQLKAITDLMLKVNGEWSDAFFTFISKKFNHQISSPEQLTTFEANTIIDMLRKKAEG
  soluble fraction (log2): -0.601

## HMKDLDSLSQEAKSVYAVFSDKPIHIDDIKRKTGLDFSKLFKAVTELELAELISSGEGKMYSL
  soluble fraction (log2): -0.0075

## HMKDLTIRQQQFLNYIKDHLSLTGFPPTRSDIANEMGFKSPNAAEDHLRALARKGAIEIVPGTSRGIRLP
  soluble fraction (log2): -0.419

## HMKDMKISTKNLLQELAKNYPDQTSFRKNVIETTARAMGYTGKDFYPLLTTDNRVKIGTYDLATFLRSI
  soluble fraction (log2): -0.969

## HMKDNPNETFERIAGKITRTLRSGPVRIQQLDLLFSESAGKVVDVLRAMAENGEVLIKDDTIQLNGNN
  soluble fraction (log2): -0.0108

## HMKDTFHNLSEEKRERIIRAALGEFAASGYEKATLDGVVQAAGISKGGLYEYISSKEDLFRYLLEYSYD
  soluble fraction (log2): -1.82
